Target: AβO(1-42), oligomeric non-fibrillar Aβ prepared from the peptide Aβ_(1-42) (UniProt P05067 672-713)
Assay: SPR

B1: TR#2, recombinant TR segment containing the extracellular domain (ectodomain) (domain or fragment, UniProt Q9UIK5 56-301, looked up)
chain: CSGYDDRENDLFLCDTNTCKFDGECLRIGDTVTCVCQFKCNNDYVPVCGSNGESYQNECYLRQAACKQQSEILVVSEGSCATDAGSGSGDGVHEGSGETSQKETSTCDICQFGAECDEDAEDVWCVCNIDCSQTNFNPLCASDGKSYDNACQIKEASCQKQEKIEVMSLGRCQDNTTTTTKSEDGHYARTDYAENANKLEESAREHHIPCPEHYNGFCMHGKCEHSINMQEPSCRCDAGYTGQHCE
For B1, the Kd was 76.8 nM.

From paper PMC5533101 (Journal of Alzheimer's disease : JAD, 2004)
